Experimental findings from US20120244164A1 are described below.

Assay [1] addresses Human c-Met (human) (UniProt P08581). The assay is described as follows: cell-based or functional assay.
In assay [2] the target is recombinant human c-Met/Fc chimera (R&D systems) (human). The assay is described as follows: HGF/c-Met competition Alphascreen, in absence of HSA. (Alpha assays give light when donor and acceptor beads are brought close together.)
Assay [3] has the same target. The assay can be described thus: HGF/c-Met competition Alphascreen, in presence of 5 uM HSA.
Assay [4] deals with Human c-Met (human) (UniProt P08581). The assay is described as follows: competition flow cytometry: 1 nM biotinylated hHGF on A549 cells. On the technique in general: A flow cytometer gives signals particle by particle.
Human c-Met (human), sequence (P08581 25-1390 limits assumed): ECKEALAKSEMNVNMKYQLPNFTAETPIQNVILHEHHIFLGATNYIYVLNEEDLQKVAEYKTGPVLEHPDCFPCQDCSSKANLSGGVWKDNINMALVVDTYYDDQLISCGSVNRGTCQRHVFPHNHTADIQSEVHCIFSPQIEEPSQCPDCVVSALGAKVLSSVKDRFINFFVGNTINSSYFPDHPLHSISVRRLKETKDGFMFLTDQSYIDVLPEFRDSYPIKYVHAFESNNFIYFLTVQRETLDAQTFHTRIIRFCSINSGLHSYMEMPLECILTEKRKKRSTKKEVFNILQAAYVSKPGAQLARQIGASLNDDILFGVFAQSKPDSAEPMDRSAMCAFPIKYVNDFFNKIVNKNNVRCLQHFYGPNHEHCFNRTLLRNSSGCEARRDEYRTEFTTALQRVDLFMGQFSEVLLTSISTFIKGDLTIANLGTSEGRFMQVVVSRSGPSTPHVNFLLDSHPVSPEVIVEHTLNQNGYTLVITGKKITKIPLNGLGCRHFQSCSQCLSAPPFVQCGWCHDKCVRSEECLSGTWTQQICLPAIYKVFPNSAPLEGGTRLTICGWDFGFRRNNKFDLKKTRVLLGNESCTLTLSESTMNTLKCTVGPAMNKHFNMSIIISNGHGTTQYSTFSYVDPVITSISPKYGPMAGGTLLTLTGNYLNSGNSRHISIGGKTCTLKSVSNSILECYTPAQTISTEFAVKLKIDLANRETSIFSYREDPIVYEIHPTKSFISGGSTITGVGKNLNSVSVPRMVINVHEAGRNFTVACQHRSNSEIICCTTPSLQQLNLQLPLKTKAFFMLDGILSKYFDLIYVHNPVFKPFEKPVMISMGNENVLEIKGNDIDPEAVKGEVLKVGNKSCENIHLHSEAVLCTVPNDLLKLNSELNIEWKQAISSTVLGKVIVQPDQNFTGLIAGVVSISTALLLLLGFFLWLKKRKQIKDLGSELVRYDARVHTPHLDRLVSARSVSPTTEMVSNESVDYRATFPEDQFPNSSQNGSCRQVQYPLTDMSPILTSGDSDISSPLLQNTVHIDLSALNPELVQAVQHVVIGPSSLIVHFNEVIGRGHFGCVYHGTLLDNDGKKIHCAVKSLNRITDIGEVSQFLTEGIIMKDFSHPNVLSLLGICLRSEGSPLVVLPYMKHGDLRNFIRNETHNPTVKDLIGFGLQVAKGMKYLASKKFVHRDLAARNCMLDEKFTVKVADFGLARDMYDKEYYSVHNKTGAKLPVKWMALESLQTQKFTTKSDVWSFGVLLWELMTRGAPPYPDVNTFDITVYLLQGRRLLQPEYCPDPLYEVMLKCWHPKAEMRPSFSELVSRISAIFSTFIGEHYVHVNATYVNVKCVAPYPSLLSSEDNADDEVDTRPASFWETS
Assay [5] has as its target recombinant human c-Met/Fc chimera (R&D systems) (human). The assay is described as follows: HGF/c-Met competition Alphascreen: biotinylated hHGF, human c-Met/Fc.
In assay [6] the target is cynomolgus c-Met (cynomolgus monkey). The assay is described as follows: competition FACS: 0.5 nM biotinylated HGF on BAF3 cells with cynomolgus c-Met.
cynomolgus c-Met (cynomolgus monkey), sequence (A0M8R7 25-1381 S170N/I621T limits assumed): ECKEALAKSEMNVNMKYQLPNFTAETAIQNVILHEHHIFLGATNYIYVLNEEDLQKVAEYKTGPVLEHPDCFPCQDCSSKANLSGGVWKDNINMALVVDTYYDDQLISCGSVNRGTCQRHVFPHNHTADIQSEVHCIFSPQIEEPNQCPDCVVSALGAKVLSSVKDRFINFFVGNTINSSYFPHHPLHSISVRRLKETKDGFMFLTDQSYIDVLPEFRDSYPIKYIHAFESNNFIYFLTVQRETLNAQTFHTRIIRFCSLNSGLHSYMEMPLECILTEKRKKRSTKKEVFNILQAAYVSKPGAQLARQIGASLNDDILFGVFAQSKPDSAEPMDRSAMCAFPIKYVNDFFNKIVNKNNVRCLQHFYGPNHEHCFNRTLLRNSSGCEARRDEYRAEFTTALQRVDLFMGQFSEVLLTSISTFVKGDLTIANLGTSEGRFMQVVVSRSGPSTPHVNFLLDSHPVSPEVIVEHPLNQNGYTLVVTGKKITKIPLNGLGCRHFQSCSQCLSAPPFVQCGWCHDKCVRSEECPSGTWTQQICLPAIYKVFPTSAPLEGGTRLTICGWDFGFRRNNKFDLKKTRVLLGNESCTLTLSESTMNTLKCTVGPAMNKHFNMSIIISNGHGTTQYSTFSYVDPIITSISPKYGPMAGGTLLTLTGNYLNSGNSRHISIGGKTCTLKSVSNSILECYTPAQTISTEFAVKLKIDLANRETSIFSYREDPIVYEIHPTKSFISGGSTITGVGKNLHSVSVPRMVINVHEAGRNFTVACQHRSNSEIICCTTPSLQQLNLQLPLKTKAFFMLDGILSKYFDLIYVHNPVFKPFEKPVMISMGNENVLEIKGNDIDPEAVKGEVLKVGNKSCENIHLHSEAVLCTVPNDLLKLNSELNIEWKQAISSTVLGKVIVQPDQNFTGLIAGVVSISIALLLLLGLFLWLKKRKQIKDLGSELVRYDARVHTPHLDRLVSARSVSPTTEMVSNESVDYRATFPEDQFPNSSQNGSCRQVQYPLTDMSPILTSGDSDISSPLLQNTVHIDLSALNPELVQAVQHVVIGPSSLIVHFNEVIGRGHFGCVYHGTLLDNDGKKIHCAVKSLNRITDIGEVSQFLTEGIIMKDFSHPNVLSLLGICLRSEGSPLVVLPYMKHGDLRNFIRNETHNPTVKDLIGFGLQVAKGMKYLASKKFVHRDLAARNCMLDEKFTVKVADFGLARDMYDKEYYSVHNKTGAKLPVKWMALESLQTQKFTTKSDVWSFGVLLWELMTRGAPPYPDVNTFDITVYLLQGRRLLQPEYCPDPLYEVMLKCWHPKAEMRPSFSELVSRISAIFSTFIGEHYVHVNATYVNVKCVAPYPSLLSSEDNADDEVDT

recombinant human c-Met/Fc chimera (R&D systems) (human), sequence (chain, as listed by the source mutant limits assumed): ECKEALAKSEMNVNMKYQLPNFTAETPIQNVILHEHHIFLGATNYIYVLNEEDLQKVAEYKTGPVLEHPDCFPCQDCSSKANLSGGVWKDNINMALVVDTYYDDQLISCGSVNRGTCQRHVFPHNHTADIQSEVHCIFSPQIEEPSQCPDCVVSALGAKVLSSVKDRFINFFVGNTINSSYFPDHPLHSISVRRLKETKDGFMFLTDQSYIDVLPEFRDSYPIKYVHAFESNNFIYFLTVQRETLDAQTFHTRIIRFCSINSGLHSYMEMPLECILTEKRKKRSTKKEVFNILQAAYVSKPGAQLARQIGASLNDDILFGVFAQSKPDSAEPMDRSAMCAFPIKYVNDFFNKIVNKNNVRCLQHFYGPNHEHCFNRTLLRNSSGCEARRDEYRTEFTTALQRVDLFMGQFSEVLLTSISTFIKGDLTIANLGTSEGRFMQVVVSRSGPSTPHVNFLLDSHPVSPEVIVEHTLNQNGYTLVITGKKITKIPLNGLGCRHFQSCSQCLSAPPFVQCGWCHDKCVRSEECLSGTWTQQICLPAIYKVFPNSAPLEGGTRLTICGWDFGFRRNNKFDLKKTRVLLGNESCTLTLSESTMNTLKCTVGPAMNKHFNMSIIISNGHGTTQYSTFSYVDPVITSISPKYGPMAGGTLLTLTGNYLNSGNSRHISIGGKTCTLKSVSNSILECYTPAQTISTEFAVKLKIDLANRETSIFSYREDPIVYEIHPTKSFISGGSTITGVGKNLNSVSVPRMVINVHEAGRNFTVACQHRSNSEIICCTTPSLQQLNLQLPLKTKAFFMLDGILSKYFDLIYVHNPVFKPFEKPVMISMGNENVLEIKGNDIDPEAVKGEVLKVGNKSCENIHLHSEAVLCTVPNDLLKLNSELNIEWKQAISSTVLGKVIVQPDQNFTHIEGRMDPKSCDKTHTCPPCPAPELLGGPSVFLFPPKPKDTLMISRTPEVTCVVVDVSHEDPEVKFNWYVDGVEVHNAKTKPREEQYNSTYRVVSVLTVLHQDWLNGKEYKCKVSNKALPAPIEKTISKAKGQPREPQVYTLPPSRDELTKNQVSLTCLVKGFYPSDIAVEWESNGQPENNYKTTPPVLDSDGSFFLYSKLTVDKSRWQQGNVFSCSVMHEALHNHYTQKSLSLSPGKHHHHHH

Turning to “anti-c-Met antibody fragment 5D5 Fab from mAb”, in assay [1], the % inhibition of HGF-dependent A549 cell migration was determined as 112%; the % inhibition of HGF-dependent c-Met phosphorylation, A549 cells, experiment 1 came to 96.4%; the % inhibition of HGF-dependent c-Met phosphorylation, A549 cells, experiment 2 turned out to be 95.9%; the % inhibition of HGF-dependent proliferation of BxPC3 cells was 94.8%. In assay [1], this substance had an IC50, HGF-dependent A549 cell migration of 5.48 nM; an IC50, HGF-dependent c-Met phosphorylation, A549 cells, experiment 1 of 10.4 nM; an IC50, HGF-dependent c-Met phosphorylation, A549 cells, experiment 2 of 9.09 nM; an IC50, HGF-dependent proliferation of BxPC3 cells of 34.3 nM. The 50% inhibitory concentration (IC50) in assay [2] is 3.2 nM. In addition, in assay [3], the concentration for half-maximal inhibition (IC50) was 3.1 nM. The substance further registered an IC50 in assay [4] of 11.3 nM. Also, in assay [5], the % inhibition was determined as 101% and the half-maximal inhibitory concentration (IC50) is 1.3 nM.
With anti-c-Met antibody 5D5, the concentration of maximal c-Met phosphorylation in A549 cells in assay [1] worked out at 37 nM. For the same substance, the values for the IC50 in assay [4] and in assay [6] were 2.72 nM and 6.7 nM, respectively.

A word on the IC50: it is the point on the concentration scale where inhibition reaches its midpoint. By % inhibition is commonly meant the drop in the measured response relative to a control, in per cent.
